What was measured:
[1] = cited from earlier work
coho salmon = details: orally intubated with rbGH and antacid, 7-week trial; cited from earlier work
[2] = in vivo; cited from earlier work
[3] = in vivo; cited from earlier work; remark: listed apart in the source
[4] = in vivo; cited from earlier work; remark: listed apart in the source
[5] = test system: proteolytic enzymes, enzyme extract of proximal small intestine; assay: In vitro proteolytic enzyme inhibition by feed ingredients (casein hydrolysis); assay type: biochemical, rainbow trout; details: increasing level of inhibitor inclusion; FIGS. 5-12
Description: • 1. Centrifuge Sorvall model • 2. Bench-top blender • 3. Dissecting material (scissors) • 4. Centrifuge bottle • 5. Disposable cuvettes for spectrophotometer • 6. Microcentrifuge tubes 1,5 ml • 7. Spectrophotometer • 8. Vortexer • 9. Microplates reader from Biorad • 10. 50 mM Tris-HCl pH=7.5 • 11. Commassie blue staining solution • 12. BSA (1 mg\ml) standard solution • 13. TCA 20% • 14. Rainbow trouts pancreatic and duodenal tissues • 15. 0.5% casein in 50 mM Tris-HCl pH=9 • 16. 50 mM Tris-HCl+CaCl2 10 mM pH=7.5 Enzyme Extract • 1. Rainbow trout were weighed and sacrificed. • 2. Dissection was performed to remove the proximal small intestine from the fish. • 3. After weighing, the tissues were homogenised in 50 mM Tris-HCl ph=7.5 (1:10 w\v). • 4. Centrifuge at 16000×g for 30 min at 4° C. • 5. Keep the supernatant. Aliquot and store them at −20 C for further use. • 6. Perform Commassie assay to measure the amount of protein present in the enzyme extract. Commassie Blue Stain Protocol • 1. Weigh 160 mg of BSA in 10 ml of […] Tris-HCl pH=7.5. • 2. […] Read at 655 nm with the microplate reader from Biorad. […] Centrifuge at 12000×g for 5 min and read at 280 nm. […] Centrifuge at 12000×g for 5 min and read at 280 nm. […] Centrifuge at 12000×g for 5 min and read at 280 nm. […] Centrifuge at 12000×g for 5 min and read at 280 nm. […] Centrifuge at 12000×g for 5 min and read at 280 nm. […]

salmonids = details: in vivo; cited from earlier work
rainbow trout = assay: Growth of rainbow trout after intraperitoneal injection of recombinant bST; assay type: in vivo, Oncorhynchus mykiss; details: IP, 20 μg bST/g live body weight weekly for 6 weeks; FIG. 4
Description: Intraperitoneal (IP) administration dose per fish weekly was 20 μg bST/g live body weight for 6 weeks.

Molecule: CCCCCCCCC(=O)N(C)C[C@H](O)[C@@H](O)[C@H](O)[C@H](O)CO [Mega-9, reference compound]
- plasma HRP presence compared to controls ([1]; co-delivery with HRP): almost double
- growth performance compared to fish dosed with GH alone (coho salmon): significantly increases growth performance

Molecule: CC[C@@]1([C@@H]2O[C@@H]([C@H]3O[C@@](O)(CO)[C@H](C)C[C@@H]3C)C[C@@H]2C)CC[C@H]([C@]2(C)CC[C@]3(C[C@H](O)[C@@H](C)[C@@H]([C@@H](C)[C@@H](OC)[C@H](C)C(=O)O)O3)O2)O1 [monensin]
- effect upon HRP absorption [2]: no effect upon HRP absorption

Molecule: horseradish peroxidase: tracer protein, horseradish peroxidase type 1 (Sigma)
- time to transport to the circulation after oral administration [3]: ≤ 1 h

Molecule: human growth hormone: human growth hormone given with a suspension of sodium salicylate in oil
- bioavailability (with reference to intravenous) [4]: 10-20%

B1: lyophylized ovalbumin: protease inhibitor component of the Oralject™ cocktail (protein, UniProt P01012 2-386, looked up)
Ovalbumin: GSIGAASMEFCFDVFKELKVHHANENIFYCPIAIMSALAMVYLGAKDSTRTQINKVVRFDKLPGFGDSIEAQCGTSVNVHSSLRDILNQITKPNDVYSFSLASRLYAEERYPILPEYLQCVKELYRGGLEPINFQTAADQARELINSWVESQTNGIIRNVLQPSSVDSQTAMVLVNAIVFKGLWEKAFKDEDTQAMPFRVTEQESKPVQMMYQIGLFRVASMASEKMKILELPFASGTMSMLVLLPDEVSGLEQLESIINFEKLTEWTSSNVMEERKIKVYLPRMKMEEKYNLTSVLMAMGITDVFSSSANLSGISSAESLKISQAVHAAHAEINEAGREVVGSAEAGVDAASVSEEFRADHPFLFCIKHIATNAVLFFGRCVSP
modifications: lyophilized
- in vitro proteolytic enzyme inhibition [5]: affect to differing degrees the inhibition

B2: spray-dried ovalbumin: protease inhibitor component of the Oralject™ cocktail (protein, UniProt P01012 2-386, looked up)
Ovalbumin: GSIGAASMEFCFDVFKELKVHHANENIFYCPIAIMSALAMVYLGAKDSTRTQINKVVRFDKLPGFGDSIEAQCGTSVNVHSSLRDILNQITKPNDVYSFSLASRLYAEERYPILPEYLQCVKELYRGGLEPINFQTAADQARELINSWVESQTNGIIRNVLQPSSVDSQTAMVLVNAIVFKGLWEKAFKDEDTQAMPFRVTEQESKPVQMMYQIGLFRVASMASEKMKILELPFASGTMSMLVLLPDEVSGLEQLESIINFEKLTEWTSSNVMEERKIKVYLPRMKMEEKYNLTSVLMAMGITDVFSSSANLSGISSAESLKISQAVHAAHAEINEAGREVVGSAEAGVDAASVSEEFRADHPFLFCIKHIATNAVLFFGRCVSP
modifications: spray-dried
- in vitro proteolytic enzyme inhibition [5]: affect to differing degrees the inhibition

B3: bovine GH (bGH): bovine growth hormone (protein, UniProt P01246 27-217, looked up)
Somatotropin: AFPAMSLSGLFANAVLRAQHLHQLAADTFKEFERTYIPEGQRYSIQNTQVAFCFSETIPAPTGKNEAQQKSDLELLRISLLLIQSWLGPLQFLSRVFTNSLVFGTSDRVYEKLKDLEEGILALMRELEDGTPRAGQILKQTYDKFDTNMRSDDALLKNYGLLSCFRKDLHKTETYLRVMKCRRFGEASCAF
- increase in growth rate (salmonids): two to three-fold increase in growth rate

B4: recombinant bST: recombinant bovine somatotropin (Monsanto Co.) (protein, UniProt P01246 27-217, looked up)
Somatotropin: AFPAMSLSGLFANAVLRAQHLHQLAADTFKEFERTYIPEGQRYSIQNTQVAFCFSETIPAPTGKNEAQQKSDLELLRISLLLIQSWLGPLQFLSRVFTNSLVFGTSDRVYEKLKDLEEGILALMRELEDGTPRAGQILKQTYDKFDTNMRSDDALLKNYGLLSCFRKDLHKTETYLRVMKCRRFGEASCAF
- body weight gain (rainbow trout): significantly induces increased body weight gain

B5: soya bean trypsin inhibitor: enzyme inhibitor co-delivered with HRP to rainbow trout (protein, UniProt P01070 25-205, looked up)
Trypsin inhibitor A: DFVLDNEGNPLENGGTYYILSDITAFGGIRAAPTGNERCPLTVVQSRNELDKGIGTIISSPYRIRFIAEGHPLSLKFDSFAVIMLCVGIPTEWSVVEDLPEGPAVKIGENKDAMDGWFRLERVSDDEFNNYKLVFCPQQAEDDKCGDIGISIDHDDGTRRLVVSKNKPLVVQFQKLDKESL
- oral absorption of HRP ([1]; in vivo, po): increased

— US20070141139A1, “COMPOSITION FOR INTESTINAL DELIVERY” (priority 2000, published 2007)
